Patent US4125375A, “Separation of solid and liquid components of mixtures” (National Research Development Corporation, priority 1975, dated 1978)
Several values for one entry are separate records, joined by “and”; a condition that tells them apart may be missing. Equal entries are not always repeated.

Tested on: antibody to BTG coupled to Sepharose 4B
Test: Radioimmunoassay for platelet β thromboglobulin (BTG), Sepharose 4B-coupled antibody separated by sucrose layering
Format: binding
Procedure: After primary incubation with ^125 I BTG, 1 ml aliquots of standard BTG of known concentrations in the range from 0.2 to 25.6 µg/ml are incubated in 75 × 17 mm sample tubes with an antibody to BTG coupled to Sepharose 4B. After incubation the Sepharose 4B and supernatant are separated by the method of the invention as follows.
1 ml of diluent is added to each sample tube followed by 6 ml of 10% w/v sucrose in water. The sucrose solution is added over a period of about 15 seconds through a stainless steel probe by means of a peristaltic pump. The outlet of the probe is positioned about 0.5 cm from the bottom of the sample tube, and the sucrose solution forms a discrete layer beneath the incubate. In this way the sucrose addition is carried out in a substantially non-turbulent manner. The sample tubes are then left to stand for about 60 minutes during which time the Sepharose 4B together with bound BTG settles out of the incubate into the sucrose solution forming a deposit at the bottom of each tube.
Each sample tube, in turn, is then placed in an auto-γ counter (Wallac Instruments Ltd) modified as shown in FIG. 1 and counted for a period of 49.9 seconds (this being the period required to yield 10,000 counts from the total amount of ^125 I-BTG added to each tube). The sample tubes are then left to stand for a further 16 hours, and each sample tube is again counted. The results obtained are given in Table I, dividing the counts obtained by 100 giving the results in terms of the percentage of the total ^125 I-BTG which has been bound in each case.
With reference to FIG. 1 the γ-counter has a well type detector into which the sample tube 1 enters. The detector is modified by placing a 2.5 cm length of plastic tube 2 in the bottom of the well and adding an annular disc 3 of lead screening material beneath customary annular plastic disc spill shield 4. In such an arrangement the source which is to be counted, the bound ^125 I BTG linked to the deposit of Sepharose 4B 5 at the bottom of the tube 1, is well within the detector. The free ^125 I BTG present in the 2 ml layer of aqueous incubate 6 is separated from the detector by the intervening 6 ml layer 7 of 10% w/v sucrose solution, and also the detector is shielded to a large extent against stray radiation from the free fraction by the disc 3 of lead screening material. For all intents and purposes the detector "sees" only radiation from the bound and not from the free fraction.

[1] = 0 μg standard BTG, A after 1 hr. standing
[2] = 0 μg standard BTG, B after 17 hrs. standing
[3] = Controls without antibody, A after 1 hr. standing
[4] = Controls without antibody, B after 17 hrs. standing
[5] = 0.2 μg standard BTG, A after 1 hr. standing
[6] = 0.2 μg standard BTG, B after 17 hrs. standing
[7] = 0.4 μg standard BTG, A after 1 hr. standing
[8] = 0.4 μg standard BTG, B after 17 hrs. standing
[9] = 0.8 μg standard BTG, A after 1 hr. standing
[10] = 0.8 μg standard BTG, B after 17 hrs. standing
[11] = 1.6 μg standard BTG, A after 1 hr. standing
[12] = 1.6 μg standard BTG, B after 17 hrs. standing
[13] = 3.2 μg standard BTG, A after 1 hr. standing
[14] = 3.2 μg standard BTG, B after 17 hrs. standing
[15] = 6.4 μg standard BTG, A after 1 hr. standing
[16] = 6.4 μg standard BTG, B after 17 hrs. standing
[17] = 12.8 μg standard BTG, A after 1 hr. standing
[18] = 12.8 μg standard BTG, B after 17 hrs. standing
[19] = 25.6 μg standard BTG, A after 1 hr. standing
[20] = 25.6 μg standard BTG, B after 17 hrs. standing

B1: ^125 I-BTG: radioiodinated BTG tracer of the radioimmunoassay (protein, UniProt P02775 48-128, looked up)
Beta-thromboglobulin: GKEESLDSDLYAELRCMCIKTTSGIHPKNIQSLEVIGKGTHCNQVEVIATLKDGRKICLDPDAPRIKKIVQKKLAGDESAD
modifications: Beta-thromboglobulin 125I label
notes: radioiodinated BTG tracer of the radioimmunoassay
% bound (of total ^125 I-BTG) [1]: 45.7% | Counts (in 49.9 sec) [1]: 4617 counts and 4492 counts and 4581 counts and 4599 counts | % bound (of total ^125 I-BTG) [2]: 45.1% | Counts (in 49.9 sec) [2]: 4584 counts and 4474 counts and 4503 counts and 4496 counts | % bound (of total ^125 I-BTG) [3]: 1.5% | Counts (in 49.9 sec) [3]: 133 counts and 180 counts | % bound (of total ^125 I-BTG) [4]: 1.5% | Counts (in 49.9 sec) [4]: 160 counts and 149 counts

B2: platelet β thromboglobulin (protein, UniProt P02775 48-128, looked up)
Beta-thromboglobulin: B1 Beta-thromboglobulin
modifications: Beta-thromboglobulin
notes: standard BTG of known concentrations
% bound (of total ^125 I-BTG) [5]: 32.3% | Counts (in 49.9 sec) [5]: 3061 counts and 3409 counts | % bound (of total ^125 I-BTG) [6]: 31.3% | Counts (in 49.9 sec) [6]: 3110 counts and 3154 counts | % bound (of total ^125 I-BTG) [7]: 27.2% | Counts (in 49.9 sec) [7]: 2657 counts and 2784 counts | % bound (of total ^125 I-BTG) [8]: 27.3% | Counts (in 49.9 sec) [8]: 2059 counts and 2816 counts | % bound (of total ^125 I-BTG) [9]: 22.0% | Counts (in 49.9 sec) [9]: 2117 counts and 2286 counts | % bound (of total ^125 I-BTG) [10]: 20.9% | Counts (in 49.9 sec) [10]: 2059 counts and 2129 counts | % bound (of total ^125 I-BTG) [11]: 15.1% | Counts (in 49.9 sec) [11]: 1469 counts and 1552 counts | % bound (of total ^125 I-BTG) [12]: 14.5% | Counts (in 49.9 sec) [12]: 1451 counts and 1447 counts | % bound (of total ^125 I-BTG) [13]: 10.4% | Counts (in 49.9 sec) [13]: 1103 counts and 986 counts | % bound (of total ^125 I-BTG) [14]: 9.9% | Counts (in 49.9 sec) [14]: 979 counts and 1001 counts | % bound (of total ^125 I-BTG) [15]: 7.1% | Counts (in 49.9 sec) [15]: 706 counts and 721 counts | % bound (of total ^125 I-BTG) [16]: 6.6% | Counts (in 49.9 sec) [16]: 650 counts and 665 counts | % bound (of total ^125 I-BTG) [17]: 4.8% | Counts (in 49.9 sec) [17]: 465 counts and 495 counts | % bound (of total ^125 I-BTG) [18]: 4.5% | Counts (in 49.9 sec) [18]: 440 counts and 458 counts | % bound (of total ^125 I-BTG) [19]: 3.5% | Counts (in 49.9 sec) [19]: 346 counts and 357 counts | % bound (of total ^125 I-BTG) [20]: 3.3% | Counts (in 49.9 sec) [20]: 337 counts and 321 counts
